Results from paper PMC7785802, “Therapeutic Efficacy of a Trichinella Spiralis Paramyosin-Derived Peptide Modified With a Membrane-Targeting Signal in Mice With Antigen-Induced Arthritis” (Frontiers in Microbiology, 2020).

Biological target: T1, original peptide (Trichinella spiralis paramyosin-derived tetradecapeptide, …) (Trichinella spiralis)
T1 construct: also called Ts-pmy-derived peptide; original Ts-Pmy-derived peptide; source: synthetic peptide (solid-phase synthesis, GL Biochem; RP-HPLC purified up to 95%)
Experiment: MST
Conditions: both partners purified

T1 sequence (P02748 22-559): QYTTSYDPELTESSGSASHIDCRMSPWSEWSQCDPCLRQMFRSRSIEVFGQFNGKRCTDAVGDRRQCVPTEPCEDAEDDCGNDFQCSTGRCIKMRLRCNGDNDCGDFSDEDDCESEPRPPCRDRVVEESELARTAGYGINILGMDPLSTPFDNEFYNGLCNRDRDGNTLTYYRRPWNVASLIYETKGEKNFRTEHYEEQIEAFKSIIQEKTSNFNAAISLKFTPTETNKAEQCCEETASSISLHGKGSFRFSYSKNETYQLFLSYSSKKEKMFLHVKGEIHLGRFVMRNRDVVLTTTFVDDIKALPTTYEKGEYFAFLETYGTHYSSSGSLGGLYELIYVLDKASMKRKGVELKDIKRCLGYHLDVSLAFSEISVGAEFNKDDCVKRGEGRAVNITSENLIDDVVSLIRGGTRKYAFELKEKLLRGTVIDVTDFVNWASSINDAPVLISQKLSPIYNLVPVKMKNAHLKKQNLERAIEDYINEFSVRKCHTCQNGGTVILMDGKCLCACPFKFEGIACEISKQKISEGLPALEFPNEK

B1: human complement component C9 (natural protein)
chain: not shown
modifications: fluorescent probe NT-647 bound covalently (in the MST assay)
notes: also called human C9
Question: Does B1 bind?
Answer: Result: binds
